Measured values reported in US20240092889A1 (Chugai, published 2024).

T1: recombinant human C1r2s2 tetramer (human, UniProt P09871 16-688; P00736 18-705)
T1 construct: C1s and C1r co-expressed in HEK293/FreeStyle 293-F and purified from conditioned medium
T1 chain 1: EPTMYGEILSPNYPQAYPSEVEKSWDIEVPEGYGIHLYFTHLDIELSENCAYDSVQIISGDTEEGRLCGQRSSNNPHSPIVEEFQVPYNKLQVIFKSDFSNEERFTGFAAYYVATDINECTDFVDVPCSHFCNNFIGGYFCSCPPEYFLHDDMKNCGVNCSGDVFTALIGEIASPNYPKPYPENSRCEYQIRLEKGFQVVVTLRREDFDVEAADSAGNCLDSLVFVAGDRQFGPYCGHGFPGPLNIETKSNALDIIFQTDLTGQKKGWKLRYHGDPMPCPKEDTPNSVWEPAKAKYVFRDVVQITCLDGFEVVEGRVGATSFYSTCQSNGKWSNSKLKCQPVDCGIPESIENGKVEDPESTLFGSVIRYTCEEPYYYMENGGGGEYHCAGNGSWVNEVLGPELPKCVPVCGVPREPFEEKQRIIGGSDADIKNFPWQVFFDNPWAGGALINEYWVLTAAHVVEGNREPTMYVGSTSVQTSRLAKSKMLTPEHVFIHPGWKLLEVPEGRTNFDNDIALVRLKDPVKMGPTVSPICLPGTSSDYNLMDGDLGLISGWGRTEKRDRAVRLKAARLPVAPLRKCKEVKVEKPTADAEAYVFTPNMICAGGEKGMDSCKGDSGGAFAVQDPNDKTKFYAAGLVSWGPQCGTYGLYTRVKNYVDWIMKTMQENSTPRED
T1 chain 2: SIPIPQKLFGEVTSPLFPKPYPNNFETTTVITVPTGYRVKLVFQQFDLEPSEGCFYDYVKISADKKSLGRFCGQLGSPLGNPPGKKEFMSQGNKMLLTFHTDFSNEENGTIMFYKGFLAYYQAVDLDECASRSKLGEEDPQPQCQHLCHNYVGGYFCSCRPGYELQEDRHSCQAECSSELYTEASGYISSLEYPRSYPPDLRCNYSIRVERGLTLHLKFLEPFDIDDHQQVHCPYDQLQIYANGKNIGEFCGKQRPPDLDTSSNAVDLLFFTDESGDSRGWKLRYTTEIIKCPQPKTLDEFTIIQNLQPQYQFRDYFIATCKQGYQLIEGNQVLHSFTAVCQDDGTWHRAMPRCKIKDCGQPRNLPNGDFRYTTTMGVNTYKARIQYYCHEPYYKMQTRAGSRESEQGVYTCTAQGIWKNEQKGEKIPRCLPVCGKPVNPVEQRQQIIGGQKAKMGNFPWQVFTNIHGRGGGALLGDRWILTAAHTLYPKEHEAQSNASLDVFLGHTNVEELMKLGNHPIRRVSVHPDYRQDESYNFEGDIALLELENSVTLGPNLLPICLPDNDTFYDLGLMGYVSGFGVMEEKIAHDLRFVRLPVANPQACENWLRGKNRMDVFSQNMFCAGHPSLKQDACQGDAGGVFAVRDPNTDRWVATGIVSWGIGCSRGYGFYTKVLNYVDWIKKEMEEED


Molecular target: T1, recombinant human C1r2s2 tetramer
Test: SPR (BIACORE), antibody captured by ProL, human C1r2s2 injected at 100 nM, pH 7.4, 37 C
Description: Analysis of interaction between antibody variants and the human C1r2s2 prepared as mentioned above was carried out at pH7.4, at 37 degrees C. using BIACORE® T200 instrument (GE Healthcare) or BIACORE® 4000 (GE Healthcare). ProL (BioVision) was immobilized onto a CM4 sensorchip using amine coupling kit (GE Healthcare) according to the recommended settings by GE Healthcare. Antibodies and analytes were diluted into the respective running buffers, ACES pH7.4 (20 mM ACES (N-(2-Acetamido)-2-aminoethanesulfonic acid), 150 mM NaCl, 1.2 mM CaCl2, 1 mg/ml bovine serum albumin (BSA), 1 mg/ml CMD (CM-Dextran sodium salt), 0.05% Tween® 20 (polysorbate 20), 0.005 w/v % NaN3). Each antibody was captured onto the sensor surface by ProL. Antibody capture levels were aimed at 200 resonance units (RU). Then, recombinant human C1r2s2 was injected at concentrations of 25 and 100 nM followed by dissociation at pH7.4. The surface was regenerated using 10 mM Glycine-HCl, pH1.5.

Row | binding result | Binder
1 | no binding (tested: 100 nM) | AL0553 (antibody, human IgG1, kappa, V domains shown, COS0637temp with VL C95dP (Kabat), already in the VL entry) VH: QVQLVESGGGVVQPGRSLRLSCAASGFTFSAYAMNWIRQPPGKGLEWIGLIYGSGSTFYASWAKGRVTISVDTSKNQFSLKLSSVTAADTAVYYCARGRSVNYNSDFHLWGQGTLVTVSS VL: DIQMTQSPSSLSASVGDRVTITCQASQSLHDKKNLAWYQQKPGQPPKLLIYGASTLESGVPSRFSGSGSGTDFTLTISSLQPEDFATYYCQGEFSCSSADPNTFGQGTKVEIKR
2 | no binding (tested: 100 nM) | AL0559 (antibody, human IgG1, kappa, V domains shown, COS0637temp with VL C95dW (Kabat), already in the VL entry) VH: QVQLVESGGGVVQPGRSLRLSCAASGFTFSAYAMNWIRQPPGKGLEWIGLIYGSGSTFYASWAKGRVTISVDTSKNQFSLKLSSVTAADTAVYYCARGRSVNYNSDFHLWGQGTLVTVSS VL: DIQMTQSPSSLSASVGDRVTITCQASQSLHDKKNLAWYQQKPGQPPKLLIYGASTLESGVPSRFSGSGSGTDFTLTISSLQPEDFATYYCQGEFSCSSADWNTFGQGTKVEIKR
3 | no binding (tested: 100 nM) | AL0557 (antibody, human IgG1, kappa, V domains shown, COS0637temp with VL C95dT (Kabat), already in the VL entry) VH: QVQLVESGGGVVQPGRSLRLSCAASGFTFSAYAMNWIRQPPGKGLEWIGLIYGSGSTFYASWAKGRVTISVDTSKNQFSLKLSSVTAADTAVYYCARGRSVNYNSDFHLWGQGTLVTVSS VL: DIQMTQSPSSLSASVGDRVTITCQASQSLHDKKNLAWYQQKPGQPPKLLIYGASTLESGVPSRFSGSGSGTDFTLTISSLQPEDFATYYCQGEFSCSSADTNTFGQGTKVEIKR
4 | no binding (tested: 100 nM) | AL0745 (antibody, human IgG1, kappa, V domains shown, COS0637temp with VL C94E/C95dL (Kabat), already in the VL entry) VH: QVQLVESGGGVVQPGRSLRLSCAASGFTFSAYAMNWIRQPPGKGLEWIGLIYGSGSTFYASWAKGRVTISVDTSKNQFSLKLSSVTAADTAVYYCARGRSVNYNSDFHLWGQGTLVTVSS VL: DIQMTQSPSSLSASVGDRVTITCQASQSLHDKKNLAWYQQKPGQPPKLLIYGASTLESGVPSRFSGSGSGTDFTLTISSLQPEDFATYYCQGEFSESSADLNTFGQGTKVEIKR
5 | no binding (tested: 100 nM) | AL0739 (antibody, human IgG1, kappa, V domains shown, COS0637temp with VL C94V/C95dL (Kabat), already in the VL entry) VH: QVQLVESGGGVVQPGRSLRLSCAASGFTFSAYAMNWIRQPPGKGLEWIGLIYGSGSTFYASWAKGRVTISVDTSKNQFSLKLSSVTAADTAVYYCARGRSVNYNSDFHLWGQGTLVTVSS VL: DIQMTQSPSSLSASVGDRVTITCQASQSLHDKKNLAWYQQKPGQPPKLLIYGASTLESGVPSRFSGSGSGTDFTLTISSLQPEDFATYYCQGEFSVSSADLNTFGQGTKVEIKR
6 | no binding (tested: 100 nM) | AL0560 (antibody, human IgG1, kappa, V domains shown, COS0637temp with VL C95dY (Kabat), already in the VL entry) VH: QVQLVESGGGVVQPGRSLRLSCAASGFTFSAYAMNWIRQPPGKGLEWIGLIYGSGSTFYASWAKGRVTISVDTSKNQFSLKLSSVTAADTAVYYCARGRSVNYNSDFHLWGQGTLVTVSS VL: DIQMTQSPSSLSASVGDRVTITCQASQSLHDKKNLAWYQQKPGQPPKLLIYGASTLESGVPSRFSGSGSGTDFTLTISSLQPEDFATYYCQGEFSCSSADYNTFGQGTKVEIKR
7 | no binding (tested: 100 nM) | AL0742 (antibody, human IgG1, kappa, V domains shown, COS0637temp with VL C94W/C95dR (Kabat), already in the VL entry) VH: QVQLVESGGGVVQPGRSLRLSCAASGFTFSAYAMNWIRQPPGKGLEWIGLIYGSGSTFYASWAKGRVTISVDTSKNQFSLKLSSVTAADTAVYYCARGRSVNYNSDFHLWGQGTLVTVSS VL: DIQMTQSPSSLSASVGDRVTITCQASQSLHDKKNLAWYQQKPGQPPKLLIYGASTLESGVPSRFSGSGSGTDFTLTISSLQPEDFATYYCQGEFSWSSADRNTFGQGTKVEIKR
8 | no binding (tested: 100 nM) | AL0555 (antibody, human IgG1, kappa, V domains shown, COS0637temp with VL C95dR (Kabat), already in the VL entry) VH: QVQLVESGGGVVQPGRSLRLSCAASGFTFSAYAMNWIRQPPGKGLEWIGLIYGSGSTFYASWAKGRVTISVDTSKNQFSLKLSSVTAADTAVYYCARGRSVNYNSDFHLWGQGTLVTVSS VL: DIQMTQSPSSLSASVGDRVTITCQASQSLHDKKNLAWYQQKPGQPPKLLIYGASTLESGVPSRFSGSGSGTDFTLTISSLQPEDFATYYCQGEFSCSSADRNTFGQGTKVEIKR
9 | no binding (tested: 100 nM) | AL0736 (antibody, human IgG1, kappa, V domains shown, COS0637temp with VL C94R/C95dL (Kabat), already in the VL entry) VH: QVQLVESGGGVVQPGRSLRLSCAASGFTFSAYAMNWIRQPPGKGLEWIGLIYGSGSTFYASWAKGRVTISVDTSKNQFSLKLSSVTAADTAVYYCARGRSVNYNSDFHLWGQGTLVTVSS VL: DIQMTQSPSSLSASVGDRVTITCQASQSLHDKKNLAWYQQKPGQPPKLLIYGASTLESGVPSRFSGSGSGTDFTLTISSLQPEDFATYYCQGEFSRSSADLNTFGQGTKVEIKR
10 | no binding (tested: 100 nM) | AL0741 (antibody, human IgG1, kappa, V domains shown, COS0637temp with VL C94W/C95dQ (Kabat), already in the VL entry) VH: QVQLVESGGGVVQPGRSLRLSCAASGFTFSAYAMNWIRQPPGKGLEWIGLIYGSGSTFYASWAKGRVTISVDTSKNQFSLKLSSVTAADTAVYYCARGRSVNYNSDFHLWGQGTLVTVSS VL: DIQMTQSPSSLSASVGDRVTITCQASQSLHDKKNLAWYQQKPGQPPKLLIYGASTLESGVPSRFSGSGSGTDFTLTISSLQPEDFATYYCQGEFSWSSADQNTFGQGTKVEIKR
11 | no binding (tested: 100 nM) | AL0738 (antibody, human IgG1, kappa, V domains shown, COS0637temp with VL C94L/C95dL (Kabat), already in the VL entry) VH: QVQLVESGGGVVQPGRSLRLSCAASGFTFSAYAMNWIRQPPGKGLEWIGLIYGSGSTFYASWAKGRVTISVDTSKNQFSLKLSSVTAADTAVYYCARGRSVNYNSDFHLWGQGTLVTVSS VL: DIQMTQSPSSLSASVGDRVTITCQASQSLHDKKNLAWYQQKPGQPPKLLIYGASTLESGVPSRFSGSGSGTDFTLTISSLQPEDFATYYCQGEFSLSSADLNTFGQGTKVEIKR
12 | no binding (tested: 100 nM) | AL0556 (antibody, human IgG1, kappa, V domains shown, COS0637temp with VL C95dS (Kabat), already in the VL entry) VH: QVQLVESGGGVVQPGRSLRLSCAASGFTFSAYAMNWIRQPPGKGLEWIGLIYGSGSTFYASWAKGRVTISVDTSKNQFSLKLSSVTAADTAVYYCARGRSVNYNSDFHLWGQGTLVTVSS VL: DIQMTQSPSSLSASVGDRVTITCQASQSLHDKKNLAWYQQKPGQPPKLLIYGASTLESGVPSRFSGSGSGTDFTLTISSLQPEDFATYYCQGEFSCSSADSNTFGQGTKVEIKR
13 | no binding (tested: 100 nM) | AL0554 (antibody, human IgG1, kappa, V domains shown, COS0637temp with VL C95dQ (Kabat), already in the VL entry) VH: QVQLVESGGGVVQPGRSLRLSCAASGFTFSAYAMNWIRQPPGKGLEWIGLIYGSGSTFYASWAKGRVTISVDTSKNQFSLKLSSVTAADTAVYYCARGRSVNYNSDFHLWGQGTLVTVSS VL: DIQMTQSPSSLSASVGDRVTITCQASQSLHDKKNLAWYQQKPGQPPKLLIYGASTLESGVPSRFSGSGSGTDFTLTISSLQPEDFATYYCQGEFSCSSADQNTFGQGTKVEIKR
14 | no binding (tested: 100 nM) | AL0558 (antibody, human IgG1, kappa, V domains shown, COS0637temp with VL C95dV (Kabat), already in the VL entry) VH: QVQLVESGGGVVQPGRSLRLSCAASGFTFSAYAMNWIRQPPGKGLEWIGLIYGSGSTFYASWAKGRVTISVDTSKNQFSLKLSSVTAADTAVYYCARGRSVNYNSDFHLWGQGTLVTVSS VL: DIQMTQSPSSLSASVGDRVTITCQASQSLHDKKNLAWYQQKPGQPPKLLIYGASTLESGVPSRFSGSGSGTDFTLTISSLQPEDFATYYCQGEFSCSSADVNTFGQGTKVEIKR
